# Assay results taken from US9243044B2, “Anticoagulant polypeptide and applications thereof” (GUANGDONG MEDICAL COLLEGE, priority 2011, dated 2016).
# Marks after values point to notes of the source that are not given here.
# B1: NAPTin-1 (protein)
# chain: NPSCGENERHDECSRKECDPKCKYDGTEEKDDEKPVVCLTRVCYGDCICRDGFLRNKNGACVKAEDCELD
# modifications: Sequence derived from Ancylostoma caninum or Synthetic
# Assays:
# SD rats [1] = test: Rat carotid artery thrombosis (FeCl3); type: in vivo; settings: for Inhibition rate %: vs model group
# Method: 50 SPF grade male SD rats (provided by the laboratory animal center of Guangdong Medical College, 300-350 g body weight) were randomly divided into sham operation group (except without the FeCl3, the remaining steps with other groups), model group, and rNAPTin-1 low dose (100 μg·kg^−1), middle dose (1 mg·kg^−1), high dose group (5 mg·kg^−1), 10 rats each group, respectively. These rats were anaesthetized with 10% chloral hydrate (250 mg/kg) by intraperitoneal injection. The right carotid artery was isolated by making a midline cervical incision followed by blunt dissection to expose a 1 cm segment of the vessel from the carotid sheath, and then a 0.6 cm wide sealing adhesive strip was inserted. After 5 mins of tail intravenous injection of drugs, separation spare the common carotid artery segment was ring wrapped by filter paper (1.0 cm×0.5 cm) soaked in 20% FeCl3 solution and sealed with strip seal. After 15 mins, the filter strips was remove. 40 mins later, the blood vessels ligation at both ends of filter paper was ligated. The vascular segment of the paper strip wrapped was precisely cut followed sucked excess blood in blood vessels with a clean filter paper, and wet weight including thrombotic vascular was accurately weighed, then weighed again after removing blood clots. The difference is the quality of the thrombus within the 0.5 cm long vessel segment. In sham operation, FeCl3 immersion filter strips were replaced with normal saline immersion filter strips.
# normal human plasma = test: PT assay in normal human plasma; type: biochemical; settings: for PT: normal human plasma
# Method: The recombinant anticoagulant polypeptides were expressed in Escherichia coli and purified in our laboratory. Anticoagulant activity was determined by measuring the aPTT and PT.
# For the PT assay, 10 μl recombinant protein at various concentration was mixed with 45 μl normal human plasma and incubated for 15 mins at 37° C. 45 μl prewarmed PT reagent (MDC Hemostasis, Germany) was then added and the clotting time was measured with the absorbance at 630 nm by using an E1x808 kinetic microtiter reader (BioTek, United States). Each concentration was repeated 3 times.
# SD rats [2] = test: Rat clotting time after i.v. injection, aPTT; type: in vivo; settings: for Clotting time aPTT: rat plasma 2 min after injection
# Method: 40 SPF grade male SD rats (provided by the laboratory animal center of Guangdong Medical College, 300-350 g body weight) were randomly divided into a line group, and rNAPTin-1 low-dose (100 μg·kg^−1), middle-dose (1 mg·kg^−1), high dose group (5 mg·kg^−1), 10 rats each group. 2 min after intravenous injection of various rNAPTin-1, blood was harvested from animal heart, and injected into an anticoagulant tube (3.8% sodium citrate). Animal plasma was separated by centrifugation (1500×g, 10 mins) and was used to measure aPTT and PT.
# human fXIIa = molecular target: T1, human fXIIa (Homo sapiens, UniProt P00748); test: Chromogenic assay, fXIIa; type: biochemical
# T1 construct: Human coagulation factors IIa (thrombin), Xa, XIa, XIIa, EGR-fXa; purchased Haematologic Technologies Inc (United States)
# T1 sequence (P00748 373-615 limits assumed): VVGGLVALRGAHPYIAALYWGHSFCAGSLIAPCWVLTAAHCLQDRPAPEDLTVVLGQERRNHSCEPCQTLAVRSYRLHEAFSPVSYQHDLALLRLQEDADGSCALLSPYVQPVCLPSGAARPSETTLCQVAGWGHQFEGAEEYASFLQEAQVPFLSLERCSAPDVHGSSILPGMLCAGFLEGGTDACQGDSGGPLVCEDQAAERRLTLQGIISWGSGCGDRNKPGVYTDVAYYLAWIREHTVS
# T1 sequence (P00748 20-372 limits assumed): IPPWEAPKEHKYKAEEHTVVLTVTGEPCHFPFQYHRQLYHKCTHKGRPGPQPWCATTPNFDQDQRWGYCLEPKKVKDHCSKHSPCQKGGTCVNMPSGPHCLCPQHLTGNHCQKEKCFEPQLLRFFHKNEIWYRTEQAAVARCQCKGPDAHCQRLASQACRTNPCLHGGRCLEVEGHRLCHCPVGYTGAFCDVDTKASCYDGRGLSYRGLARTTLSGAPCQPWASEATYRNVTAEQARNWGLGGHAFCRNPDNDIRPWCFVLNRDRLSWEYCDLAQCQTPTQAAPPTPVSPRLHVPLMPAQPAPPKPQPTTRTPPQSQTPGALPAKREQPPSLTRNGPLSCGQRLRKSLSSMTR
# Excerpt: The recombinant anticoagulant polypeptides in the present invention were expressed in E. coli and purified in our laboratory, of which the activities against coagulation factors were investigated by chromogenic assays. Human coagulation factors IIa (thrombin), Xa, XIa, XIIa, EGR-fXa were products of Haematologic Technologies Inc (United States). Recombinant fVIIa was products of Novo-Nordisk (Denmark). Recombinant soluble tissue factor (sTF) was purchased from Protgen (Beijing, China). The following chromogenic substrates were used for these coagulation factor assays: S2765 for human fXa, S2288 for human fVIIa and fIIa, 52366 for human fXIa and fXIIa, respectively.
# The chromogenic assays were carried out in a total reaction volume of 100 μl in individual wells of a 96-well microtiter plate. 50 μl fIIa, fXa, fXIa, or fXIIa (final concentration: 1 nM) was incubated with 10 μl recombinant anticoagulant polypeptide at various concentrations (or PBS control group) Assays for the detection activity of fVIIa: 50 μl fVIIa+TF (1 μM) and EGR-fXa (final concentration 500 nM) was incubated for 15 mins at 25° C., respectively. After the addition of 40 μl of prewarmed chromogenic substrate to a final concentration of 400 μM, the changes of absorbance at 405 nm were monitored by using an E1x808 kinetic microtiter reader. The data were used to calculate the velocities of response.
# SD rats [3] = test: Rat inferior vena cava (venous) thrombosis; type: in vivo; settings: for Thrombosis rate: rats with thrombus / rats, 4 hours after ligation
# Method: 40 SPF grade male SD rats (provided by the laboratory animal center of Guangdong Medical College, 300-350 g body weight) were randomly divided into saline group, and rNAPTin-1 low-dose (100 μg·kg^−1), middle-dose (1 mg·kg^−1), high dose group (5 mg·kg^−1), 10 rats each group, respectively. These rats were anaesthetized with 10% chloral hydrate (250 mg/kg) by intraperitoneal injection. […] The abdominal cavity was reopened after 4 hours, and the ligated segment was opened longitudinally to check for whether there is thrombus.
molecule,measurement,setting,value
B1,wet weight of thrombus,SD rats [1]; 100 μg·kg^−1 i.v.,1.5 ± 0.2 mg
same,Inhibition rate %,SD rats [1]; 100 μg·kg^−1 i.v.,66.7%
same,wet weight of thrombus,SD rats [1]; 1 mg·kg^−1 i.v.,0.5 ± 0.3 mg
same,Inhibition rate %,SD rats [1]; 1 mg·kg^−1 i.v.,88.9%
same,wet weight of thrombus (mg),SD rats [1]; 5 mg·kg^−1 i.v.,0* mg
same,Inhibition rate %,SD rats [1]; 5 mg·kg^−1 i.v.,100%
same,prolongation of PT (in words),normal human plasma; 100 nM and 500 nM,couldn't prolong PT
same,PT,normal human plasma; 100 nM,12.4 ± 0.9 s
same,PT,normal human plasma; 500 nM,12.1 ± 0.4 s
same,Clotting time aPTT,SD rats [2]; 0.1 mg/kg i.v.,23.5 ± 2.1
same,Clotting time aPTT,SD rats [2]; 1.0 mg/kg i.v.,56.3 ± 5.1
same,Clotting time aPTT,SD rats [2]; 5.0 mg/kg i.v.,136.7 ± 35.5
same,effect on rat aPTT (in words),SD rats [2]; 0.1-5 mg/kg i.v.,prolonged significantly aPTT
same,effect on fXIIa activity (in words),human fXIIa; 100 nM,without affecting
same,effect on fXIIa activity (in words),human fXIIa; 200 nM,without affecting
same,Inhibition rate %,SD rats [3]; 0.1 mg/kg i.v.,80%
same,Thrombosis rate,SD rats [3]; 0.1 mg/kg i.v.,2/10*
same,Inhibition rate %,SD rats [3]; 1.0 mg/kg i.v.,100%
same,Thrombosis rate,SD rats [3]; 1.0 mg/kg i.v.,0/10*
same,Inhibition rate %,SD rats [3]; 5.0 mg/kg i.v.,100%
same,Thrombosis rate,SD rats [3]; 5.0 mg/kg i.v.,0/10*
same,effect on rat venous thrombosis (in words),"SD rats [3]; rat, in vivo",significant antithrombotic effect
